# From US20240269256A1 (HDT BIO, published 2024)
# B1: AAA_G12 anti-EV-D68 VHH (recombinant VHH G12) (VHH)
# VHH: QVQLVESGGGLVQPGGSLRLSCLASGITFTVYRMAWYRQAPGRQRDLVAEVAPGGGTVAANSVKGRFTISRDSAKNTVDLQMNDLKPDDTAVYYCYARNLFTSGEYWGQGTQVTVSS
# Biological target: enterovirus D68 clade B2 virus (enterovirus D68)
# Test: cell-based or functional assay
binder,measurement,value
B1,"50% inhibitory concentrations (IC50), neutralization by real time cell analysis (RTCA) assay",~1 nM
